In assay [1] the target is T1, human LAMP1 at the cell surface (human, UniProt P11279 29-417).
T1 sequence: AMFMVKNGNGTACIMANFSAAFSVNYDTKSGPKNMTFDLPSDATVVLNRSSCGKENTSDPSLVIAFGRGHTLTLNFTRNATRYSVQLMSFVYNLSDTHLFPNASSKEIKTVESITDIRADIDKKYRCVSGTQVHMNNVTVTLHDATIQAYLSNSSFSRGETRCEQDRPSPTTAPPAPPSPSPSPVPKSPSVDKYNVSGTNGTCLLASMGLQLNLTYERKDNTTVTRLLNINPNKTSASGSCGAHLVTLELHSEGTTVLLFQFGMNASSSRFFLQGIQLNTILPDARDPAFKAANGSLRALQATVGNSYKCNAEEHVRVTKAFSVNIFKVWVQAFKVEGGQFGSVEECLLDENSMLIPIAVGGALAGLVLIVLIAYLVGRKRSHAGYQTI
The assay can be described thus: cell-based or functional assay.

The target in assay [2] is T1, human LAMP1 at the cell surface. The experiment in a line: cell-based or functional assay. The source holds these as a separate data set.
For assay [3] the target is unchanged. The assay can be described thus: flow cytometry, HCT116 huLAMP1 clone 8. The method, then:
(§1) HCT116 cells were infected by a lentiviral vector allowing stable integration of the human or the cynomolgus LAMP1 CDS in genomic DNA of cells. Individual clones with different densities of human or cynomolgus LAMP1 cell surface localization were derived from a pool of HCT116 infected cells. […] 100 μL/well of goat anti-human IgG conjugated with Alexa488 (Invitrogen; # A11013) was added for 1 h at 4° C. and washed two times with PBS 1% BSA. The antibody binding was evaluated after centrifugation and resuspension of cells in 100 μl fixing solution (paraformaldehyde at 4% in PBS). Samples were read using Galaxy® Flow Cytometry System (Partec). EC50 values were estimated using BIOST@T-SPEED software.

Assay [4] deals with T2, cynomolgus monkey LAMP1 at the cell surface (cynomolgus monkey, UniProt P11279 29-417 (human entry)).
T2 construct: also called cynoLAMP1; cynomolgus LAMP1
T2 chain: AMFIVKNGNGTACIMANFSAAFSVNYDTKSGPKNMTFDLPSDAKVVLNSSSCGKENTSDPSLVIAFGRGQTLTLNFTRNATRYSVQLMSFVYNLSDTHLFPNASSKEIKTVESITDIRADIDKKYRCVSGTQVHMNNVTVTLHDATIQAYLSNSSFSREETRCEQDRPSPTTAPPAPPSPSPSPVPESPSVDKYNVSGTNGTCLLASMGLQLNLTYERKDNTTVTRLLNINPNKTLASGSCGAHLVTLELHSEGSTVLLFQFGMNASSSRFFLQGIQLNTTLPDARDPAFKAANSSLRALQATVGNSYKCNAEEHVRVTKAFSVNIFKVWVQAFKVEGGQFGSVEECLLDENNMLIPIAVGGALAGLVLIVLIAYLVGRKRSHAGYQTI
The experiment in a line: flow cytometry, HEK293 cynoLAMP1 clone 44.

Assay [5] concerns the target T1, human LAMP1 at the cell surface. The experiment in a line: flow cytometry, HCT116 stable clone. The text has this:
HCT116 stable clone was obtained as described above. HEK293 cells were infected by a lentiviral vector allowing stable integration of the human or the cynomolgus LAMP1 CDS in genomic DNA of cells. Individual clones with different densities of cynomolgus LAMP1 cell surface localization were derived from a pool of HEK293 infected cells. Protocol as described in example above. EC₅₀ values were estimated using BIOST@T-SPEED software.

For assay [6], the target named is T3, mLAMP1_ΔGYQTI (mouse, UniProt P11438 25-369).
T3 construct: on cells; also called pXL6009; murine LAMP1; not shown: murine transmembrane domain and cytoplasmic tail with GYQTI replaced by 5 Ala
T3 sequence: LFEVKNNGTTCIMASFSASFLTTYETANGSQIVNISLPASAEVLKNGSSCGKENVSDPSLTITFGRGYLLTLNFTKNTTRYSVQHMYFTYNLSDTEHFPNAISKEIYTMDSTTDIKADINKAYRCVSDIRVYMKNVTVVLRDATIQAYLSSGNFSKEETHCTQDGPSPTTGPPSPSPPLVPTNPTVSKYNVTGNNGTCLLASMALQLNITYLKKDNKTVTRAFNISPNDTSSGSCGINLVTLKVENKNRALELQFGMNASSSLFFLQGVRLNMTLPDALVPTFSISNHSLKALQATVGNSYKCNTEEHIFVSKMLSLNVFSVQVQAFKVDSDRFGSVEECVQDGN
The experiment in a line: flow cytometry, transfected 293-F cells, experiment 2.

For assay [7], the target named is T1, human LAMP1 at the cell surface. The assay can be described thus: flow cytometry, HCT116 stable clones; human LAMP1 on recombinant HCT116 stable clones. The method, then:
as §1

Assay [8] concerns the target T2, cynomolgus monkey LAMP1 at the cell …. The assay can be described thus: flow cytometry, HCT116 stable clones; cynomolgus LAMP1 on recombinant HCT116 stable clones. The method, then:
as §1

For assay [9], the target named is T1, human LAMP1 at the cell surface. The assay can be described thus: flow cytometry, dissociated CR-IGR-034P colon PDX cells; CR-IGR-034P colon tumor cells. The method, then: Advanced human primary colon tumor CR-IGR-034P was obtained from Patient-derived xenograft in mice. Tumor CR-IGR-034P was enzymatically dissociated using collagenase Type IV (Invitrogen; #17104-019) and deoxyribonuclease I (Invitrogen; #18047-019) for 1 h at 4° C. Cell viability was estimated by Viacount application using Guava® easyCyte™ 8HT Flow Cytometry System. […] 100 μL/well of goat anti-mouse IgG conjugated with Alexa647 (Invitrogen; # A2135) or goat anti-human IgG conjugated with Alexa488 (Invitrogen; # A11013) was added for 45 min at 4° C. and washed three times with PBS 1% BSA. The antibody binding was evaluated after centrifugation and resuspension of cells by adding 200 μl/well PBS 1% BSA and read using Guava® easyCyte™ 8HT Flow Cytometry System. EC50 values were estimated using BIOST@T-SPEED software.

Several values for one entry are separate records, joined by “and”; a condition that tells them apart may be missing. Equal entries are not always repeated.

B1: huMAb1_1 (antibody, human IgG1, kappa)
heavy: not shown
light: DIQMTQSPSSLSASVGDRVTITCKASQDIDRYMAWYQDKPGKAPRLLIHDTSTLQSGVPSRFSGSGSGRDYTLTISNLEPEDFATYYCLQYDNLWTFGGGTKVEIKRTVAAPSVFIFPPSDEQLKSGTASVVCLLNNFYPREAKVQWKVDNALQSGNSQESVTEQDSKDSTYSLSSTLTLSKADYEKHKVYACEVTHQGLSSPVTKSFNRGEC
notes: humanized, VH1-huIgG1 and VL1-huCk
Turning to B1, in [1], the “ADCP EC50, 3/1, batch 67130713495” value was 0.47 nM and 0.36 nM; the “ADCP EC50, 3/1, batch 67131354967” value stood at 0.5 nM; the “ADCP EC50, 3/1, batch 67131617470” value was 0.56 nM; the “ADCP EC50, 6/1, batch 67130713495” value is 0.98 nM and 0.34 nM. Moreover, the “ADCP EC50, macrophages/target 3/1, batch 67131617438” value in assay [1] came out at 0.28 nM. For the same molecule, in assay [2], the “ADCP Mean EC50, HCT116 huLAMP1 clone 4, antigen density 20 000” value stood at 0.73 nM; the “ADCP Mean EC50, HCT116 huLAMP1 clone 5, antigen density 300 000” value was 0.33 nM; the “ADCP Mean EC50, HCT116 huLAMP1 clone 8, antigen density 100 000” value was 0.43 nM; the “ADCP Mean EC50, HCT116 huLAMP1 clone 12, antigen density 2500” value turned out to be 0.65 nM. This molecule also showed an EC50 in assay [3] of 15 nM. Moreover, the 50% effective concentration (EC50) in assay [4] was 30.1 nM.

B2: MAb3 (antibody, V domains shown)
VH: QIQLVQSGPELKKPGETVKISCKASGYIFTNYGMNWVKQAPGKGLKWMGWINTYTGESRYADDFKGRFALSLETSASTAYLQINNLENEDMATYFCAREDYYGNSPWFFDVWGAGTTVTVSS
VL: DIQMTQTTSSLSASLGDRVTISCNASQGINKYLNWYQQKPDGTVKLLIYYTSTLHSGVPSRFSGSGSGTDYSLTINNLEPEDIATYYCQQYTKLPFTFGSGTKLEIK
notes: murine monoclonal IgG, kappa, from hybridoma; also called murine MAb3
As to B2, the EC50 in assay [5] was 7.6 nM.

B3: MAb1 (antibody, mouse IgG2a, kappa)
heavy: QVQLQQSGAELVKPGASVKMSCKASGYIFTNYNIHWVKKSPGQGLEWIGAIYPGNGDAPYSQKFKDKATLTADKSSSTTYMQLSRLTSEDSAVYYCVRANWDVAFAYWGQGTLVSVSAAKTTAPSVYPLAPVCGDTTGSSVTLGCLVKGYFPEPVTLTWNSGSLSSGVHTFPAVLQSDLYTLSSSVTVTSSTWPSQSITCNVAHPASSTKVDKKIEPRGPTIKPCPPCKCPAPNLLGGPSVFIFPPKIKDVLMISLSPIVTCVVVDVSEDDPDVQISWFVNNVEVHTAQTQTHREDYNSTLRVVSALPIQHQDWMSGKEFKCKVNNKDLPAPIERTISKPKGSVRAPQVYVLPPPEEEMTKKQVTLTCMVTDFMPEDIYVEWTNNGKTELNYKNTEPVLDSDGSYFMYSKLRVEKKNWVERNSYSCSVVHEGLHNHHTTKSFSRTPGK
light: DIQMTQSPPSLSASLGGKVTITCKASQDIDRYMAWYQDKPGKGPRLLIHDTSTLQPGIPSRFSGSGSGRDYSFSISNLEPEDIATYYCLQYDNLWTFGGGTKLEIKRADAAPTVSIFPPSSEQLTSGGASVVCFLNNFYPKDINVKWKIDGSERQNGVLNSWTDQDSKDSTYSMSSTLTLTKDEYERHNSYTCEATHKTSTSPIVKSFNRNEC
notes: murine monoclonal IgG, kappa, from hybridoma; also called murine MAb1
In the case of B3, the mean fluorescence in [6] was 2. Moreover, the half-maximal effective concentration (EC50) in assay [7] came to 4.9 nM; in assay [8], 5.5 nM; in assay [9], 5 nM.

For the origin of these results see patent US20180142032A1 (Sanofi, published 2018).
